Reference: patent US11167048B2, “Dual targeting ligand for cancer diagnosis and treatment” (priority 2018, dated 2021)
Blank lines part the entries; values can stand above or below the compound they belong to.

Key:
PSMA = molecular target: T1, PSMA (Homo sapiens, UniProt Q04609); assay: NAALADase assay with LNCaP homogenized cell membranes and [N-acetyl aspartyl ^3H-glutamate]; assay type: binding; conditions: LNCaP homogenized cell membranes, read-out: IC50 LNCaP cells
T1 construct: endogenous in cells; host or cells: LNCaP human prostate cancer cells, homogenized cell membranes
Method: (§1) (NAAG) as the radioligands. […] After incubation, the reaction medium was aspirated and the cells were rinsed three times with cold media. Cell-associated radioactivity was determined using a Packard Riastar gamma counter. […] The enzymatic reaction was stopped by addition of 50 μL of cold sodium phosphate buffer (0.1 M, pH=7.4). […] Scintillation cocktail was added to each fraction and the amount of radioactivity in each was determined by liquid scintillation counting.
(§2) (NAAG) as the radioligands. […] After incubation, the reaction medium was aspirated and the cells were rinsed three times with cold media. Cell-associated radioactivity was determined using a Packard Riastar gamma counter. […] For the PSMA-positive assay, the binding affinity was measured using the N-acetylated-α-linked acidic dipeptidase (NAALADase) assay. […] The enzymatic reaction was stopped by addition of 50 μL of cold sodium phosphate buffer (0.1 M, pH=7.4). […] Columns were pre-equilibrated with 0.2 M HCl prior to loading of the reaction mixture. […] Scintillation cocktail was added to each fraction and the amount of radioactivity in each was determined by liquid scintillation counting.

GRPR = molecular target: T2, GRPR (Homo sapiens, UniProt P30550); assay: Competitive displacement binding assay in GRPR-positive PC-3 cells with [^125I-(Tyr4)-BBN]; conditions: radioligand [^125I-(Tyr4)-BBN], 1 h, 37° C., read-out: IC50 PC3 cells
T2 construct: endogenous in cells; host or cells: PC-3 human prostate cancer cells (intact cells)
Method: as §1, §2

in vivo [1] = assay: in vivo; set-up: species or system CF-1 normal mice; conditions: CF-1, mouse, iv, total radioactivity
in vivo [2] = assay: in vivo; set-up: species or system ICR-SCID male mice; conditions: male, ICR-SCID, mouse, iv, total radioactivity, Pancreas uptake
in vivo [3] = assay: in vivo; set-up: species or system ICR-SCID male mice; conditions: male, ICR-SCID, mouse, iv, total radioactivity, Brain uptake
metastatic disease = conditions: ^68Ga-labeled agent; cited from earlier work
prostate tumors = conditions: newly diagnosed PCa patients; cited from earlier work

T1 sequence (Q04609 whole entry): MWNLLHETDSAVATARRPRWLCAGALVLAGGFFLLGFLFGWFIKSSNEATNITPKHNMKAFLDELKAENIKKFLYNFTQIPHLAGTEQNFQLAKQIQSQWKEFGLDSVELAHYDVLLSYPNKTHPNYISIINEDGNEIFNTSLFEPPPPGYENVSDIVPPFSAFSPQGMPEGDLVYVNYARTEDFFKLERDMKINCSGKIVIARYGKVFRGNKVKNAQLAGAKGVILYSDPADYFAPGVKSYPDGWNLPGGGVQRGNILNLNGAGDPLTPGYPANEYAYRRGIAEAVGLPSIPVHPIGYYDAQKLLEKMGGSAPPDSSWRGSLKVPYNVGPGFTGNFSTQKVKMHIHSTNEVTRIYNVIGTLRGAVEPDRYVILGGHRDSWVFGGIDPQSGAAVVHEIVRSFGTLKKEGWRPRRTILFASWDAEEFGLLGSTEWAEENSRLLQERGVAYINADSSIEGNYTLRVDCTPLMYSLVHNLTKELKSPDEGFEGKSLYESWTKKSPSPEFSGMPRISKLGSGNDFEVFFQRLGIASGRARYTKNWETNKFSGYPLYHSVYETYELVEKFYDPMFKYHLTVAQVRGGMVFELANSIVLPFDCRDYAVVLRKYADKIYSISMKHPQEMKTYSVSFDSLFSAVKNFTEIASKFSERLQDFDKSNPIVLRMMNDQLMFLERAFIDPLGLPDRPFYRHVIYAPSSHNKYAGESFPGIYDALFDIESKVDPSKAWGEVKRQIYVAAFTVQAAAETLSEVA
T2 sequence (P30550 whole entry): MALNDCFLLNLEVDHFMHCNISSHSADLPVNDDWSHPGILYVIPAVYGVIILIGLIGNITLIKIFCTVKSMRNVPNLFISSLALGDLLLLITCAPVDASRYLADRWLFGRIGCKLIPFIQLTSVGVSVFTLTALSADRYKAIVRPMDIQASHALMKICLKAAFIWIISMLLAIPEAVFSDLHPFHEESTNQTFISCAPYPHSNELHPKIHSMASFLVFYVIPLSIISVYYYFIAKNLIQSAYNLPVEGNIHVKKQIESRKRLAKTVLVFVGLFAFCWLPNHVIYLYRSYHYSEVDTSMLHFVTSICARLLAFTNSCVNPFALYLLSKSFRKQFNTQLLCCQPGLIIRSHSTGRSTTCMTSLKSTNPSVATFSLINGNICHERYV

IC50 (PSMA): 9.3 ± 2.32 nM
IC50 (GRPR): 3.99 ± 1.8 nM
Compound: [DUPA-6-Ahx-Lys(M-DOTA)-6-Ahx-RM2]

Compound: CC(C)C[C@H](NC(=O)C[C@H](O)[C@H](CC(C)C)NC(=O)[C@H](Cc1c[nH]cn1)NC(=O)CNC(=O)[C@@H](NC(=O)[C@H](C)NC(=O)[C@H](Cc1c[nH]c2ccccc12)NC(=O)[C@H](CCC(N)=O)NC(=O)[C@@H](Cc1ccccc1)NC(=O)CCCCNC(=O)[C@H](CCCCNC(=O)CN1CCN(CC(=O)O)CCN(CC(=O)O)CCN(CC(=O)O)CC1)NC(=O)CCCCCNC(=O)CC[C@H](NC(=O)N[C@@H](CCC(=O)O)C(=O)O)C(=O)O)C(C)C)C(N)=O [DUPA-6-Ahx-Lys(^111In-DOTA)-5-Ava-RM2, metal not drawn]
tissue uptake at 1 h (in vivo [1]; Bone uptake): 0.09 ± 0.06 %ID/g
tissue uptake at 1 h (in vivo [1]; Brain uptake): 0.02 ± 0.01 %ID/g
tissue uptake at 1 h (in vivo [1]; Heart uptake): 0.11 ± 0.06 %ID/g
tissue uptake at 1 h (in vivo [1]; Kidneys uptake): 4.92 ± 0.84 %ID/g
tissue uptake at 1 h (in vivo [1]; L. Intestine uptake): 0.12 ± 0.05 %ID/g
tissue uptake at 1 h (in vivo [1]; Liver uptake): 0.15 ± 0.05 %ID/g
tissue uptake at 1 h (in vivo [1]; Lung uptake): 0.68 ± 0.25 %ID/g
tissue uptake at 1 h (in vivo [1]; Muscle uptake): 0.06 ± 0.04 %ID/g
tissue uptake at 1 h (in vivo [1]; Pancreas uptake): 1.02 ± 0.37 %ID/g
tissue uptake at 1 h (in vivo [1]; S. Intestine uptake): 0.26 ± 0.09 %ID/g
tissue uptake at 1 h (in vivo [1]; Spleen uptake): 0.13 ± 0.05 %ID/g
tissue uptake at 1 h (in vivo [1]; Stomach uptake): 0.23 ± 0.18 %ID/g

Compound: CC(C)C[C@H](NC(=O)C[C@H](O)[C@H](CC(C)C)NC(=O)[C@H](Cc1c[nH]cn1)NC(=O)CNC(=O)[C@@H](NC(=O)[C@H](C)NC(=O)[C@H](Cc1c[nH]c2ccccc12)NC(=O)[C@H](CCC(N)=O)NC(=O)[C@@H](Cc1ccccc1)NC(=O)CCCCCCCNC(=O)[C@H](CCCCNC(=O)CN1CCN(CC(=O)O)CCN(CC(=O)O)CCN(CC(=O)O)CC1)NC(=O)CCCCCNC(=O)CC[C@H](NC(=O)N[C@@H](CCC(=O)O)C(=O)O)C(=O)O)C(C)C)C(N)=O [DUPA-6-Ahx-Lys(^111In-DOTA)-8-Aoc-RM2, metal not drawn]
tissue uptake at 1 h (in vivo [1]; Bone uptake): 0.14 ± 0.04 %ID/g
tissue uptake at 1 h (in vivo [1]; Brain uptake): 0.02 %ID/g
tissue uptake at 1 h (in vivo [1]; Heart uptake): 0.2 ± 0.14 %ID/g
tissue uptake at 1 h (in vivo [1]; Kidneys uptake): 1.37 ± 0.31 %ID/g
tissue uptake at 1 h (in vivo [1]; L. Intestine uptake): 0.49 ± 0.25 %ID/g
tissue uptake at 1 h (in vivo [1]; Liver uptake): 0.38 ± 0.04 %ID/g
tissue uptake at 1 h (in vivo [1]; Lung uptake): 0.37 ± 0.03 %ID/g
tissue uptake at 1 h (in vivo [1]; Muscle uptake): 0.1 ± 0.01 %ID/g
tissue uptake at 1 h (in vivo [1]; Pancreas uptake): 5.45 ± 0.47 %ID/g
tissue uptake at 1 h (in vivo [1]; Spleen uptake): 0.49 ± 0.34 %ID/g
tissue uptake at 1 h (in vivo [1]; Stomach uptake): 1.73 ± 2.49 %ID/g
tissue uptake at 4 h (in vivo [2]): 0.58 ± 0.1 %ID/g
tissue uptake at 24 h (in vivo [3]): 0.01 %ID/g

Compound: DOTA-p-aminomethylaniline-diglycolic acid-DPhe-Gln-Trp-Ala-Val-Gly-His-Leu-NHEt (FQWAVGHL; DOTA-p-aminomethylaniline-diglycolic acid N-term, C-terminal NHEt; (1)..(1) D-phenylalanine; (1)..(1) DOTA-p-aminomethylaniline-diglycolic acid linked to D-Phenylalanine) [SB3]
Metastatic disease detected, fraction of patients (metastatic disease): 5/9

IC50 (PSMA): 16 ± 2.79 nM
Compound: CC(C)C[C@H](NC(=O)C[C@H](O)[C@H](CC(C)C)NC(=O)[C@H](Cc1c[nH]cn1)NC(=O)CNC(=O)[C@@H](NC(=O)[C@H](C)NC(=O)[C@H](Cc1c[nH]c2ccccc12)NC(=O)[C@H](CCC(N)=O)NC(=O)[C@@H](Cc1ccccc1)NC(=O)CCCCCCCNC(=O)[C@H](CCCCNC(=O)CN1CCN(CC(=O)O)CCN(CC(=O)O)CCN(CC(=O)O)CC1)NC(=O)CCCCCNC(=O)CC[C@H](NC(=O)N[C@@H](CCC(=O)O)C(=O)O)C(=O)O)C(C)C)C(N)=O [[DUPA-6-Ahx-[^natLu-DOTA]-8-Aoc-RM2]] [metal not drawn]

Compound: CC(C)C[C@H](NC(=O)C[C@H](O)[C@H](CC(C)C)NC(=O)[C@H](Cc1c[nH]cn1)NC(=O)CNC(=O)[C@@H](NC(=O)[C@H](C)NC(=O)[C@H](Cc1c[nH]c2ccccc12)NC(=O)[C@H](CCC(N)=O)NC(=O)[C@@H](Cc1ccccc1)NC(=O)c1ccc(NC(=O)[C@H](CCCCNC(=O)CN2CCN(CC(=O)O)CCN(CC(=O)O)CCN(CC(=O)O)CC2)NC(=O)CCCCCNC(=O)CC[C@H](NC(=O)N[C@@H](CCC(=O)O)C(=O)O)C(=O)O)cc1)C(C)C)C(N)=O [DUPA-6-Ahx-Lys(^111In-DOTA)-AMBA-RM2, metal not drawn]
tissue uptake at 1 h (in vivo [1]; Bone uptake): 0.06 ± 0.04 %ID/g
tissue uptake at 1 h (in vivo [1]; Brain uptake): 0.02 ± 0.01 %ID/g
tissue uptake at 1 h (in vivo [1]; Heart uptake): 0.12 ± 0.05 %ID/g
tissue uptake at 1 h (in vivo [1]; Kidneys uptake): 1.37 ± 0.31 %ID/g
tissue uptake at 1 h (in vivo [1]; L. Intestine uptake): 0.09 ± 0.02 %ID/g
tissue uptake at 1 h (in vivo [1]; Liver uptake): 0.28 ± 0.04 %ID/g
tissue uptake at 1 h (in vivo [1]; Lung uptake): 1.01 ± 1.15 %ID/g
tissue uptake at 1 h (in vivo [1]; Muscle uptake): 0.08 ± 0.02 %ID/g
tissue uptake at 1 h (in vivo [1]; Pancreas uptake): 0.24 ± 0.06 %ID/g
tissue uptake at 1 h (in vivo [1]; S. Intestine uptake): 0.2 ± 0.04 %ID/g
tissue uptake at 1 h (in vivo [1]; Spleen uptake): 0.15 ± 0.04 %ID/g
tissue uptake at 1 h (in vivo [1]; Stomach uptake): 0.15 ± 0.06 %ID/g

Compound: ^64Cu-CB-TE2A-AR06
High contrast imaging of prostate tumors, fraction of men (prostate tumors): ¾

IC50 (PSMA): 13.9 ± 2.53 nM
Compound: CC(C)C[C@H](NC(=O)C[C@H](O)[C@H](CC(C)C)NC(=O)[C@H](Cc1c[nH]cn1)NC(=O)CNC(=O)[C@@H](NC(=O)[C@H](C)NC(=O)[C@H](Cc1c[nH]c2ccccc12)NC(=O)[C@H](CCC(N)=O)NC(=O)[C@@H](Cc1ccccc1)NC(=O)CCCCCNC(=O)[C@H](CCCCNC(=O)CN1CCN(CC(=O)O)CCN(CC(=O)O)CCN(CC(=O)O)CC1)NC(=O)CCCCCNC(=O)CC[C@H](NC(=O)N[C@@H](CCC(=O)O)C(=O)O)C(=O)O)C(C)C)C(N)=O [[DUPA-6-Ahx-[^natLu-DOTA]-6-Ahx-RM2]] [metal not drawn]

Compound: CC(C)C[C@H](NC(=O)C[C@H](O)[C@H](CC(C)C)NC(=O)[C@H](Cc1c[nH]cn1)NC(=O)CNC(=O)[C@@H](NC(=O)[C@H](C)NC(=O)[C@H](Cc1c[nH]c2ccccc12)NC(=O)[C@H](CCC(N)=O)NC(=O)[C@@H](Cc1ccccc1)NC(=O)CCCCCNC(=O)[C@H](CCCCNC(=O)CN1CCN(CC(=O)O)CCN(CC(=O)O)CCN(CC(=O)O)CC1)NC(=O)CCCCCNC(=O)CC[C@H](NC(=O)N[C@@H](CCC(=O)O)C(=O)O)C(=O)O)C(C)C)C(N)=O [DUPA-6-Ahx-Lys(^111In-DOTA)-6-Ahx-RM2, metal not drawn]
tissue uptake at 1 h (in vivo [1]; Bone uptake): 0.08 ± 0.06 %ID/g
tissue uptake at 1 h (in vivo [1]; Brain uptake): 0.03 ± 0.04 %ID/g
tissue uptake at 1 h (in vivo [1]; Heart uptake): 0.16 ± 0.22 %ID/g
tissue uptake at 1 h (in vivo [1]; Kidneys uptake): 2.84 ± 0.64 %ID/g
tissue uptake at 1 h (in vivo [1]; L. Intestine uptake): 0.14 ± 0.12 %ID/g
tissue uptake at 1 h (in vivo [1]; Liver uptake): 0.23 ± 0.14 %ID/g
tissue uptake at 1 h (in vivo [1]; Lung uptake): 0.86 ± 0.7 %ID/g
tissue uptake at 1 h (in vivo [1]; Muscle uptake): 0.07 ± 0.07 %ID/g
tissue uptake at 1 h (in vivo [1]; Pancreas uptake): 0.19 ± 0.19 %ID/g
tissue uptake at 1 h (in vivo [1]; S. Intestine uptake): 0.22 ± 0.13 %ID/g
tissue uptake at 1 h (in vivo [1]; Spleen uptake): 0.12 ± 0.13 %ID/g
tissue uptake at 1 h (in vivo [1]; Stomach uptake): 0.14 ± 0.11 %ID/g
